As usually defined, the stoichiometry N is the number of molecules, sites or subunits per partner or assembly.

Results on 2 substances are retold here after PMC10266979.

In test [1] the target is Recombinant neuraminidase (N2) from H3N2 A/Tanzania/205/2010 (influenza A virus H3N2 A/Tanzania/205/2010). Nature of the test: cryo-EM structure.
Test [2] has as its target Recombinant neuraminidase (N2) from H3N2 A/Tanzania/205/2010 with S245N and S247T mutations (influenza A virus H3N2 A/Tanzania/205/2010). Nature of the test: cryo-EM structure.

Consider “Recombinant neuraminidase (N2) from H3N2 A/Tanzania/205/2010 (enzyme)”, for which the stoichiometry N in test [1] worked out at 4. In the case of “Recombinant neuraminidase (N2) from H3N2 A/Tanzania/205/2010 with S245N and S247T mutations (enzyme)”, the stoichiometry N in test [2] turned out to be 4.
